Experimental data from the supplement of paper PMC10126150.
± gives the standard deviation of the averaged measurements.

Tested on: ATP
Test: switch fluorescence ratio, 500 uM ATP over buffer (Cy3 cluster intensity, sum of 5 cycles each) (fold (ratio)); higher = stronger signal-on switching upon ATP binding; sequences stand for … in TCGTCGGCAGCGTCAGATGTGTATAAGAGACAGTTTTTTTTTTTTTTTTTTTTTTTTT…TC
Settings: aptamer strand: ATP DNA aptamer (quencher-CACCTGGGGGAGTATTGCGGAGGAAGG + anchor), 100 nM annealed; ATP concentration: 500 uM
Summary of the method: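 The quencher-labelled ATP aptamer, at 100 nM, was annealed to Cy3-labelled switching-strand clusters on a modified Illumina MiSeq flow-cell. The clusters were imaged in selection buffer, then after 15 min with 500 uM ATP at 22 °C, and this buffer/ATP cycle ran five times with NaOH stripping and re-annealing between runs. Per-cluster fluorescence ratios, summed target-cycle over summed buffer-cycle Cy3 intensity, were averaged per switch-domain sequence. Clusters outside 100-1000 RFU were excluded.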
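Also: ATP exposure 15 min at 22 °C before imaging.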

| Sequence | switch fluorescence ratio |
| --- | --- |
| ACTGATGTAC | 1.09 ± 0.012 |
| ACTGATTTTG | 1.01 ± 0.029 |
| ACTGCCCGGC | 1.1 ± 0.12 |
| ACTGGACGAT | 1.19 ± 0.015 |
| ACTGGGATGT | 1.02 ± 0.0043 |
| ACTGGGGACG | 1.02 ± 0.053 |
| ACTGGGGGGC | 1.05 ± 0.016 |
| ACTGGGGGGT | 0.994 ± 0.02 |
| ACTGGGGGTT | 0.994 ± 0.029 |
| ACTGGGGTTT | 0.982 ± 0.024 |
| ACTGGGTACC | 1.05 ± 0.012 |
| ACTGGGTCGA | 1.04 ± 0.034 |
| ACTGGGTTTG | 1.001 ± 0.0043 |
| ACTGGTAAGG | 1.009 ± 0.0053 |
| ACTGGTATGG | 1.01 ± 0.025 |
| ACTGGTCAGC | 1 ± 0.029 |
| ACTGGTCGCC | 0.992 ± 0.015 |
| ACTGGTGGCA | 1.04 ± 0.028 |
| ACTGGTTGGG | 0.966 ± 0.018 |
| ACTGTAGTCT | 1.06 ± 0.012 |
| ACTGTGTGTT | 1.01 ± 0.025 |
| ACTGTTAGGC | 1.01 ± 0.056 |
| ACTGTTATTT | 1.0389 ± 0.00024 |
| ACTGTTTGTC | 0.9897 ± 0.0061 |
| ACTGTTTTCT | 1.05 ± 0.02 |

| Sequence | switch fluorescence ratio |
| --- | --- |
| ACTGTTTTGC | 0.999 ± 0.019 |
| ACTGTTTTTC | 1 ± 0.013 |
| ACTTAAAAGG | 1.0122 ± 0.00061 |
| ACTTAAGTAG | 0.987 ± 0.04 |
| ACTTACGGGC | 1.513 ± 0.0058 |
| ACTTATCAGG | 1.04 ± 0.045 |
| ACTTATGTGG | 0.974 ± 0.018 |
| ACTTATTAAA | 1.03 ± 0.034 |
| ACTTATTCGG | 1.02 ± 0.019 |
| ACTTCCGGG | 1.33 ± 0.27 |
| ACTTCGTTCT | 1.03 ± 0.034 |
| ACTTCTAGCG | 1.02 ± 0.072 |
| ACTTGACCCG | 1.08 ± 0.064 |
| ACTTGAGGGA | 0.9743 ± 0.0071 |
| ACTTGAGGGG | 1.03 ± 0.043 |
| ACTTGAGGTC | 0.991 ± 0.028 |
| ACTTGCGGCT | 1 ± 0.05 |
| ACTTGCGTCG | 0.981 ± 0.023 |
| ACTTGGAGGG | 1.01 ± 0.011 |
| ACTTGGCGTC | 1.02 ± 0.06 |
| ACTTGGGGGT | 1.02 ± 0.016 |
| ACTTGGTCCA | 0.987 ± 0.016 |
| ACTTGTAATT | 0.997 ± 0.026 |
| ACTTGTGACA | 1.12 ± 0.18 |
| ACTTGTGTAA | 1.018 ± 0.0021 |

| Sequence | switch fluorescence ratio |
| --- | --- |
| ACTTGTTTGC | 1.03 ± 0.035 |
| ACTTTAGGGG | 1.06 ± 0.044 |
| ACTTTATGTT | 1.041 ± 0.0015 |
| ACTTTATTGG | 1.03 ± 0.024 |
| ACTTTCACGG | 1.32 ± 0.044 |
| ACTTTGGCGG | 0.981 ± 0.044 |
| ACTTTGTCAT | 0.981 ± 0.017 |
| ACTTTGTTCT | 1 ± 0.027 |
| ACTTTTGTTT | 1.02 ± 0.015 |
| AGAAAAAACA | 0.986 ± 0.02 |
| AGAAAAAACG | 1.05 ± 0.092 |
| AGAAAAAAGG | 1.23 ± 0.42 |
| AGAAAAAAGT | 1.03 ± 0.12 |
| AGAAAAAGGC | 1.02 ± 0.065 |
| AGAAAAAGGG | 1.01 ± 0.037 |
| AGAAAAATTT | 1.19 ± 0.29 |
| AGAAAAGCTC | 1.02 ± 0.033 |
| AGAAAAGGGA | 0.995 ± 0.017 |
| AGAAAGAGGT | 1.011 ± 0.0096 |
| AGAAAGTTGA | 1.024 ± 0.01 |
| AGAAATCCTT | 0.976 ± 0.036 |
| AGAAATCTTG | 0.983 ± 0.021 |
| AGAACCACCG | 1.12 ± 0.032 |
| AGAAGAATTG | 1.04 ± 0.048 |
| AGAAGAGGTG | 1.07 ± 0.029 |

| Sequence | switch fluorescence ratio |
| --- | --- |
| AGAAGAGTGT | 1.03 ± 0.038 |
| AGAAGCGCGG | 0.975 ± 0.044 |
| AGAAGGGTT | 1.016 ± 0.0044 |
| AGAAGTGGGG | 0.989 ± 0.039 |
| AGAAGTTTTA | 1.01 ± 0.075 |
| AGAATAGTCA | 1 ± 0.037 |
| AGAATCGAAG | 0.994 ± 0.0041 |
| AGAATGGGGG | 1.02 ± 0.022 |
| AGAATGGTGA | 0.96 ± 0.061 |
| AGAATGTACG | 1.015 ± 0.0078 |
| AGAATGTGG | 1.21 ± 0.28 |
| AGAATTAGGC | 0.999 ± 0.021 |
| AGAATTAGTG | 0.953 ± 0.1 |
| AGACAAGGGT | 1.01 ± 0.018 |
| AGACAGTAGG | 1.03 ± 0.03 |
| AGACATCCTT | 1.04 ± 0.014 |
| AGACGAGGAA | 1.03 ± 0.058 |
| AGACGCCAAG | 1.01 ± 0.029 |
| AGACGCGTAG | 0.999 ± 0.046 |
| AGACGCTTG | 0.9961 ± 0.0042 |
| AGACGGAGGG | 1.015 ± 0.0017 |
| AGACGGATGC | 1.05 ± 0.019 |
| AGACGGCGTG | 0.9799 ± 0.0066 |
| AGACGGCTTG | 1.01 ± 0.025 |
| AGACGGGAAC | 1 ± 0.022 |

| Sequence | switch fluorescence ratio |
| --- | --- |
| AGACGGGGGG | 1 ± 0.039 |
| AGACGGGTGG | 0.9763 ± 0.0052 |
| AGACGTGTGT | 1.023 ± 0.0088 |
| AGACTAGTTT | 1.02 ± 0.015 |
| AGACTATGTG | 0.991 ± 0.024 |
| AGACTCACTG | 1.09 ± 0.011 |
| AGACTGATGA | 1.01 ± 0.014 |
| AGACTGTGGC | 0.991 ± 0.0061 |
| AGACTTCCGG | 0.969 ± 0.048 |
| AGACTTTTAT | 0.976 ± 0.031 |
| AGAGACGCTT | 1.03 ± 0.027 |
| AGAGAGACGG | 0.997 ± 0.026 |
| AGAGAGGTTT | 0.986 ± 0.039 |
| AGAGATCCGG | 0.981 ± 0.018 |
| AGAGATGGGG | 0.996 ± 0.022 |
| AGAGCACTTG | 1.025 ± 0.0032 |
| AGAGCAGGGA | 0.97 ± 0.064 |
| AGAGCGGGGT | 0.998 ± 0.0091 |
| AGAGCTCTTT | 1 ± 0.029 |
| AGAGGACCGA | 1.04 ± 0.05 |
| AGAGGCGCGT | 0.946 ± 0.036 |
| AGAGGCGTAT | 0.974 ± 0.011 |
| AGAGGCTTAC | 1.04 ± 0.051 |
| AGAGGCTTGG | 0.997 ± 0.014 |
| AGAGGGCCGG | 1.03 ± 0.072 |

| Sequence | switch fluorescence ratio |
| --- | --- |
| AGAGGGCGGA | 1 ± 0.02 |
| AGAGGGCTTG | 0.997 ± 0.018 |
| AGAGGGGAT | 1 ± 0.021 |
| AGAGGGGGCC | 0.98 ± 0.18 |
| AGAGGGGGGA | 1.02 ± 0.041 |
| AGAGGGGGGC | 1.04 ± 0.1 |
| AGAGGGGTCG | 1.02 ± 0.058 |
| AGAGGGTGAC | 1.01 ± 0.016 |
| AGAGGTGGGG | 0.968 ± 0.012 |
| AGAGGTTGG | 0.996 ± 0.026 |
| AGAGTAACGG | 0.995 ± 0.015 |
| AGAGTATTTT | 0.999 ± 0.028 |
| AGAGTCAGTG | 0.982 ± 0.022 |
| AGAGTGATGC | 1 ± 0.087 |
| AGAGTGCTTC | 0.999 ± 0.028 |
| AGAGTGGCAA | 1.04 ± 0.016 |
| AGAGTGTGGG | 1.02 ± 0.033 |
| AGAGTTAACG | 0.97158 ± 0.00066 |
| AGAGTTAATG | 0.968 ± 0.011 |
| AGAGTTCCTG | 1.01 ± 0.028 |
| AGAGTTGGGA | 1.01 ± 0.018 |
| AGAGTTTCGA | 1.01 ± 0.034 |
| AGAGTTTGGT | 0.9847 ± 0.0013 |
| AGATAACCCA | 1 ± 0.052 |
| AGATAAGTTT | 1.01 ± 0.034 |

| Sequence | switch fluorescence ratio |
| --- | --- |
| AGATAATGGC | 1.11 ± 0.19 |
| AGATAGAGTT | 0.997 ± 0.021 |
| AGATAGCAGT | 1.019 ± 0.0016 |
| AGATAGGGGG | 1 ± 0.034 |
| AGATAGGTTG | 0.974 ± 0.038 |
| AGATAGTTGG | 0.99 ± 0.038 |
| AGATATGGTT | 0.994 ± 0.048 |
| AGATATTCCG | 0.987 ± 0.02 |
| AGATATTTGG | 0.994 ± 0.018 |
| AGATCCGGGT | 0.992 ± 0.025 |
| AGATCGAACT | 0.994 ± 0.019 |
| AGATCGACGC | 1.19 ± 0.026 |
| AGATCGTGAA | 1 ± 0.0032 |
| AGATCTATAC | 1.018 ± 0.0096 |
| AGATCTTGTA | 0.991 ± 0.065 |
| AGATGAAGTG | 0.99 ± 0.019 |
| AGATGAGAGA | 1 ± 0.016 |
| AGATGAGAGT | 1 ± 0.018 |
| AGATGAGGAC | 0.922 ± 0.049 |
| AGATGGAATT | 0.994 ± 0.048 |
| AGATGGATAA | 0.99 ± 0.015 |
| AGATGGCATG | 0.987 ± 0.019 |
| AGATGGCTGG | 1.02 ± 0.012 |
| AGATGTAGGC | 1.03 ± 0.038 |
| AGATGTGGGT | 0.972 ± 0.02 |

| Sequence | switch fluorescence ratio |
| --- | --- |
| AGATGTTCCG | 1.05 ± 0.018 |
| AGATGTTGGG | 0.992 ± 0.07 |
| AGATTACGAG | 1.02 ± 0.026 |
| AGATTATCGT | 1.007 ± 0.0088 |
| AGATTATTGA | 0.943 ± 0.031 |
| AGATTCTCGA | 0.998 ± 0.011 |
| AGATTGAATT | 1.02 ± 0.062 |
| AGATTGGGCA | 0.981 ± 0.011 |
| AGATTGGTTC | 0.9953 ± 0.0044 |
| AGATTGTACA | 1.02 ± 0.02 |
| AGATTTTCGC | 1 ± 0.0091 |
| AGATTTTGTG | 0.9922 ± 0.0038 |
| AGCAAAGAAT | 1.02 ± 0.042 |
| AGCAAAGTGT | 1.02 ± 0.071 |
| AGCAACAGTT | 1.19 ± 0.28 |
| AGCAATAGGT | 1.94 ± 0.46 |
| AGCAATGCTT | 3.09 ± 0.29 |
| AGCACAGGGG | 0.985 ± 0.045 |
| AGCACATGTA | 0.998 ± 0.021 |
| AGCACGCTTT | 1.019 ± 0.0063 |
| AGCACGGCAG | 0.991 ± 0.021 |
| AGCACGTATC | 1.09 ± 0.059 |
| AGCAGAAAAT | 1.01 ± 0.025 |
| AGCAGGACCC | 1.23 ± 0.054 |
| AGCAGGAGCC | 1.061 ± 0.0063 |
